Measured values from patent US20210063414A1, “METHODS FOR PREVENTING AND/OR TREATING BONE LOSS CONDITIONS BY MODULATING IRISIN” (Dana-Farber Cancer Institute, Inc., priority 2018, published 2021).

Key:
[1] = molecular target: T1, MLO-Y4 cell surface proteins (Mus musculus, UniProt O88689); assay: Crosslinking/co-immunoprecipitation/mass spectrometry (TMT quantitative proteomics) to identify irisin receptors; type: binding; settings: TMT ratio, Pcdha4 Protocadherin alpha-4
T1 construct: endogenous in cells; host or cells: MLO-Y4
T1 sequence (O88689 30-947): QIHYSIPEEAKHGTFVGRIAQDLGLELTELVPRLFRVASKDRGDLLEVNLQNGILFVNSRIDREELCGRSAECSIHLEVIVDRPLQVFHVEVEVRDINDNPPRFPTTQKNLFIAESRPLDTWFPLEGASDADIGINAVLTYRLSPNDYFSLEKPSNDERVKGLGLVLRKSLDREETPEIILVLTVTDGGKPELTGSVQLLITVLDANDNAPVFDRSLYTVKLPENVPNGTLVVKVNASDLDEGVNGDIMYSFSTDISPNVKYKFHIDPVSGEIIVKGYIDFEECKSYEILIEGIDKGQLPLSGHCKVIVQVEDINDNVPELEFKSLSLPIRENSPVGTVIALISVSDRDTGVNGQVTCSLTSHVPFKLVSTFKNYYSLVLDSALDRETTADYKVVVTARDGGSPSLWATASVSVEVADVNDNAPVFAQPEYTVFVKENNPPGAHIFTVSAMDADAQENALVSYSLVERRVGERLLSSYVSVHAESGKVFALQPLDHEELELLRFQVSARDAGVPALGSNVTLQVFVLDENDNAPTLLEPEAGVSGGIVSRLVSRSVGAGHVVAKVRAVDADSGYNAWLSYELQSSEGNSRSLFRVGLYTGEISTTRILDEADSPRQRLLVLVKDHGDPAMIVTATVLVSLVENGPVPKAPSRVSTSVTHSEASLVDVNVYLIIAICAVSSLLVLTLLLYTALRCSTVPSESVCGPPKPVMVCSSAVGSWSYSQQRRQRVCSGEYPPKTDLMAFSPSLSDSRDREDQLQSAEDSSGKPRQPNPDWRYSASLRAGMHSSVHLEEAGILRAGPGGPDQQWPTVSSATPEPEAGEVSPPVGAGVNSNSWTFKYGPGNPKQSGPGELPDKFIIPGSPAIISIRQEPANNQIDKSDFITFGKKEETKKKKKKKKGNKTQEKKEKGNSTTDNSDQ
Outline: (§1)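 Mouse MLO-Y4 cells were switched to serum-free FreeStyle medium for 4 h, chilled, then exposed to 10 nM His-tagged irisin (or adipsin as control) for 20 min. Cells were crosslinked with 1.5 mM DTSSP (30 min, ice), and bound proteins were pulled down on Ni-NTA and eluted with 250 mM imidazole. Eluates were separated by SDS-PAGE, trypsin-digested in gel, TMT 6-plex labelled and quantified by MS3-based LC-MS/MS on an Orbitrap Fusion Lumos.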

[2] = molecular target: T2, MLO-Y4 cell surface proteins (Mus musculus, UniProt Q9Z2I9); assay: as above; type: binding; settings: co-precipitated protein Sucla2 (SUCB1_MOUSE)
T2 construct: endogenous in cells; host or cells: MLO-Y4
T2 sequence (Q9Z2I9 54-463): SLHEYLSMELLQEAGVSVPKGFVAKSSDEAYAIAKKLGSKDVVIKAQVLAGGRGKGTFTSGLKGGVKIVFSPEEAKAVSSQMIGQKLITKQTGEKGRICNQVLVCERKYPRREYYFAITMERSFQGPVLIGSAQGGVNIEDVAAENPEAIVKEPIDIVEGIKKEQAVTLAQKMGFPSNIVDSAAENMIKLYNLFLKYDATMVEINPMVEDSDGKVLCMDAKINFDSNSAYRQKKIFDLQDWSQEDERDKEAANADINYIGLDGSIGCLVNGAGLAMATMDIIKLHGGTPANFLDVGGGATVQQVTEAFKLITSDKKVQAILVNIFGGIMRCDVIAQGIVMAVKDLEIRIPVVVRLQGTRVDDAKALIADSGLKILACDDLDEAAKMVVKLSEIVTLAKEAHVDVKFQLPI
Outline: as §1

B1: irisin: secreted cleaved form of FNDC5; recombinant human/mouse irisin with C-terminal his tag produced in HEK293 cells (protein)
chain: DSPSAPVNVTVRHLKANSAVVSWDVLEDEVVIGFAISQQKKDVRMLRFIQEVNTTTRSCALWDLEEDTEYIVHVQAISIQGQSPASEPVLFKTPREAEKMASKNKDEVTMKE
modifications: left off: small tags and cut ends
notes: secreted cleaved form of FNDC5; recombinant human/mouse irisin with C-terminal his tag produced in HEK293 cells
- irsin/adipsin [1]: 4.39
- TMT signal-to-noise ratio [2]: 19.8331
- irisin/adipsin TMT signal-to-noise ratio [2]: 0.390
